B1: RA198 (nucleic acid)
DNA: GCGCGTCCTGAGAATACCAGCATCGTCTTGATGCCCTTGGAAGTCTGATTCGCGGAAACGCGTACATCCAGCTGACGAGTCCCAAATAGGACGAAACGCGC
modifications: expressed or natural sequence
B2: RA197 (nucleic acid)
DNA: GCGCGTCCTGGATTCGCGGAAACGCGTACATCCAGCTGACGAGTCCCAAATAGGACAAAACGCGC
modifications: expressed or natural sequence
B3: RA192 (nucleic acid)
DNA: GCGCGTCCTGGATTCGCGGAAACGCGTACATCCAGCTGACGAGTCCCAAATGGAATACCAGCATCGTCTTGATGCCCTTGGAAGTCCAGGACGAAACGCGC
modifications: expressed or natural sequence
B4: RA195 (nucleic acid)
DNA: GCGCGTCGAGAATACCAGCATCGTCTTGATGCCCTTGGAAGTCTCGCCTGGATTCGCGGAAACGCGTACATCCAGCTGACGAGTCCCAAATAGGACGAAACGCGC
modifications: expressed or natural sequence
B5: RA019 (nucleic acid)
DNA: GCGCGTCCTGGATTCGCGGAAACGCGTACATCCAGCTGACGGGAATACCAGCATCGTCTTGATGCCCTTGGAAGTCCAGTCCCAAATAGGACAAAACGCGC
modifications: expressed or natural sequence
B6: RA201 (nucleic acid)
DNA: GCGCGTCCTGGATTCGCGGAAACGCGAGAATACCAGCATCGTCTTGATGCCCTTGGAAGTCTCGCGTACATCCAGCTGACGAGTCCCAAATAGGACGAAACGCGC
modifications: expressed or natural sequence
B7: RA194 (nucleic acid)
DNA: GCGCGTCCTGGATTCGCGGAAACGCGTACATCCAGCTGACGAGAATACCAGCATCGTCTTGATGCCCTTGGAAGTCTCGAGTCCCAAATAGGACGAAACGCGC
modifications: expressed or natural sequence
B8: RA196 (nucleic acid)
DNA: GCGCGTCCTGGATTCGCGGAAACGCGTACATCCAGCTGACGAGTCCCAAATGAGAATACCAGCATCGTCTTGATGCCCTTGGAAGTCTCAGGACGAAACGCGC
modifications: expressed or natural sequence
B9: RA200 (nucleic acid)
DNA: GCGCGTCCTGGATTCGCGGAAACGCGTACATCCGAGAATACCAGCATCGTCTTGATGCCCTTGGAAGTCTCGCAGCTGACGAGTCCCAAATAGGACGAAACGCGC
modifications: expressed or natural sequence
B10: RA199 (nucleic acid)
DNA: GCGCGTCCTGGATTCGCGGAAACAGTGATACCAGCATCGTCTTGATGCCCTTGGCAGCACTGCGTACATCCAGCTGACGAGTCCCAAATAGGACGAAACGCGC
modifications: expressed or natural sequence
B11: RA193 (nucleic acid)
DNA: CCGGAATACCAGCATCGTCTTGATGCCCTTGGAAGTCCGGGCGCGTCCTGGATTCGCGGAAACGCGTACATCCAGCTGACGAGTCCCAAATAGGACGAAACGCGC
modifications: expressed or natural sequence
B12: RA202 (nucleic acid)
DNA: GCGCGTCCTGGATAGTGATACCAGCATCGTCTTGATGCCCTTGGCAGCACTTCGCGGAAACGCGTACATCCAGCTGACGAGTCCCAAATAGGACGAAACGCGC
modifications: expressed or natural sequence

Test system: Renilla luciferase RNA
Assay: Barcoded aptazyme variant library screen: un-cleaved Renilla luciferase RNA by barcode read counts, HEK293-T cells
Type: cell-based
Details: un-cleaved Renilla luciferase RNA, HEK293-T cells cultured with 1 mM theophylline (ON) over without theophylline (OFF); barcode read counts, triplicate
Outline: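 Barcode sequencing of cDNA versus DNA, normalized per aptazyme, gave the un-cleaved Renilla luciferase RNA fraction and fold-change with versus without theophylline (triplicates). Library: T3H48 ribozyme with one of seven theophylline aptamer variants inserted at each position, placed in the Renilla 3′ UTR of a dual-luciferase vector.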

Row | Molecule | Fold change in RNA expression between the ON state and the OFF state [fold]
1 | B1 | 1.2
2 | B2 | 1.2
3 | B3 | 1.2
4 | B4 | 1.2
5 | B5 | 2.7
6 | B6 | 1.2
7 | B7 | 1.2
8 | B8 | 1.2
9 | B9 | 1.2
10 | B10 | 1.2
11 | B11 | 1.2
12 | B12 | 1.2

From US20260167959A1, “APTAZYME-BASED REGULATABLE GENE EXPRESSION SYSTEMS” (REJUVENATE BIO INC, priority 2022, published 2026)
